These results are taken from US20160017024A1 (Five Prime, published 2016).

Experiment [1] has as its target full length human LTK with an HA tag at the C-terminus, expressed on transfected cells (human, UniProt P29376 17-864). The experiment can be described thus: cell-based or functional assay.
For the next experiment, the target named is T1, Mouse LTK ECD-Fc (mouse).
T1 construct: also called mouse LTK ECD-Fc (human Fc)
The experiment can be described thus: SPR (Biacore T100), ECD-Fc captured on Protein A CM4 chip. The protocol: The kₐ, kd, and KD for binding of human FAM150A to human LTK ECD-Fc (SEQ ID NO: 23) and mouse LTK ECD-Fc (SEQ ID NO: 25) was determined as follows. Binding kinetics of FAM150A to human and mouse LTK ECD-Fc fusion proteins was determined using Biacore T100 SPR (GE Healthcare Life Sciences, Piscataway, N.J.). LTK ECD-Fc fusions were captured on a CM4 sensor chip immobilized with Protein A (Thermo Scientific, Rockford, Ill.). HBS-P (GE Healthcare Life Sciences, Piscataway, N.J.) was used as the running and dilution buffer. Capture levels of the ECD-Fc fusions were adjusted to approximately 300-500RU so that binding values would be greater than the levels of non-specific binding to the reference flow cell. FAM150A was injected at […] (100 nM, 33.3 nM, 11.1 nM, 3.7 nM, 1.2 nM, 0.41 nM, 0.13 nM, 0.046 nM and 0 nM) for 120 seconds. The association constant, dissociation constant, and affinity of FAM150A for LTK Fc-ECD fusions was calculated using the Biacore T100 Evaluation software package using the 1:1 binding model.
On the technique in general: Surface plasmon resonance follows binding to a sensor surface in real time, without labels.

Sequence of full length human LTK with an HA tag at the C-terminus, expressed on transfected cells (P29376 17-864): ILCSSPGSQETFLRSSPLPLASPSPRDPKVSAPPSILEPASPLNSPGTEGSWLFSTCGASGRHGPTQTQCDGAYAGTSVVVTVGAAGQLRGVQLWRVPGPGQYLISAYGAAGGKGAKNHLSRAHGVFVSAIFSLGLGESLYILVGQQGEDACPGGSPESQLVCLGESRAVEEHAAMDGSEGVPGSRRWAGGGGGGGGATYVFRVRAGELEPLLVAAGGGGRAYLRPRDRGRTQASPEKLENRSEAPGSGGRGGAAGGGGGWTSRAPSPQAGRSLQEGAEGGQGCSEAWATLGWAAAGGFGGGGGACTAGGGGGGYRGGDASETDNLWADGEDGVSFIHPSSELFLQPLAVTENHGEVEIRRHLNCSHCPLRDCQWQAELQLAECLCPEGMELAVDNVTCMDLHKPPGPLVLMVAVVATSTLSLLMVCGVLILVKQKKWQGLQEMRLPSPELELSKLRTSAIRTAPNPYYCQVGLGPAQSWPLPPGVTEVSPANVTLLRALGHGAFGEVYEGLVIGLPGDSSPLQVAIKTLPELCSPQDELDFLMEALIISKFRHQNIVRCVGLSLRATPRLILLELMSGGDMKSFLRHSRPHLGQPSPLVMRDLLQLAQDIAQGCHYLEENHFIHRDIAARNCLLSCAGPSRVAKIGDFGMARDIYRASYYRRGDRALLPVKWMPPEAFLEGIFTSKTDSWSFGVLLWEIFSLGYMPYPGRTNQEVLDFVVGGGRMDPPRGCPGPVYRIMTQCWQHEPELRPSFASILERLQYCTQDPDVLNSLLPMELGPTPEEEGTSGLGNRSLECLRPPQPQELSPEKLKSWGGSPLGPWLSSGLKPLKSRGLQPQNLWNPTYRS
T1 sequence (chain, as listed by the source limits assumed): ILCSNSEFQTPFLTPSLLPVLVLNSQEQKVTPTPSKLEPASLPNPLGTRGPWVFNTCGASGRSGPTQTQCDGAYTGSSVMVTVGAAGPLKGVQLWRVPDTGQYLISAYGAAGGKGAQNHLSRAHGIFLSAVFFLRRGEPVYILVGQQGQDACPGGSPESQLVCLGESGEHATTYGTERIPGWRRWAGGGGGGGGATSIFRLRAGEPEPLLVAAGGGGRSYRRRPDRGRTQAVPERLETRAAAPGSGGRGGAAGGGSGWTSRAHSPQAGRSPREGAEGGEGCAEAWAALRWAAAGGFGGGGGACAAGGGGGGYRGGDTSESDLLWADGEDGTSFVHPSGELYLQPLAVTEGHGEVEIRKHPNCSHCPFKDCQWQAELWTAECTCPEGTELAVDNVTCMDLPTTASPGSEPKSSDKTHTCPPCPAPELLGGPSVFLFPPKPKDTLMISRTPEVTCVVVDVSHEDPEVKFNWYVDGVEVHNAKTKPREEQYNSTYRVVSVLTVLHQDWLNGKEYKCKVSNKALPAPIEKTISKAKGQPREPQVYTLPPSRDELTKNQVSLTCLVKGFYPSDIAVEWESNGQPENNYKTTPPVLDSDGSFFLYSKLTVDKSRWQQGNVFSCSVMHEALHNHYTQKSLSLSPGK

B1: Human FAM150B (ligand)
chain: GAEPREPADGQALLRLVVELVQELRKHHSAEHKGLQLLGRDCALGRAEAAGLGPSPEQRVEIVPRDLRMKDKFLKHLTGPLYFSPKCSKHFHRLYHNTRDCTIPAYYKRCARLLTRLAVSPVCMEDKQ
As to B1, in experiment [1], the “induction of LTK phosphorylation relative to an unrelated control protein” value was greater than 2 fold.

B2: Human FAM150A (ligand)
chain: RPRGRRGARVTDKEPKPLLFLPAAGAGRTPSGSRSAEIFPRDSNLKDKFIKHFTGPVTFSPECSKHFHRLYYNTRECSTPAYYKRCARLLTRLAVSPLCSQT
notes: Expressed in HEK 293 6E cells (or HEK293T supernatant) and secreted
Consider B2, for which the “fold lower affinity than to human LTK ECD-Fc” value with Mouse LTK ECD-Fc is roughly 30 fold. Moreover, in experiment [1], the “EC50 for FAM150A-induced LTK phosphorylation” value turned out to be 1.96 nM and the “induction of LTK phosphorylation relative to an unrelated control protein” value is greater than 20 fold.
